Laboratory results as given in PMC12013189, “Phospho-regulated tethering of focal adhesion kinase to vinculin links force transduction to focal adhesion signaling” (Cell Communication and Signaling : CCS, 2025).
Ends that are not written are not given here.

B2: FAT domain of Focal Adhesion Kinase, wild type (hFAK904-1052) (domain or fragment, human, UniProt Q05397 904-1052, looked up)
chain: LQPQEISPPPTANLDRSNDKVYENVTGLVKAVIEMSSKIQPAPPEEYVPMVKEVGLALRTLLATVDETIPLLPASTHREIEMAQKLLNSDLGELINKMKLAQQYVMTSLQQEYKKQMLTAAHALAVDAKNLLDVIDQARLKMLGQTRPH
notes: focal adhesion kinase (FAK), human, FAT domain, residues 904-1052 (hFAK904-1052); also called FAT-WT; source: E. coli BL21(DE3), purified (His-Trap, TEV digest, Source 15Q, Ni-NTA flow-through, Superdex200); not shown: His6, N-terminal, cleaved

Experiments:
[1] = target: T1, full-length vinculin (Vin-FL, hVinculin1-1066) (Homo sapiens, UniProt P18206); assay: Fluorescence anisotropy binding to full-length vinculin; conditions: 25 nM FITC labelled peptide, pH7.5, 22 °C, one-site binding model, 4 measurements, read-out: Apparent KD for full-length vinculin (Vin-FL)
T1 construct: Vin-FL (hVinculin1-1066) and Vin-T (hVinculin891-1066) were ordered from GenScript; 6xHis (TEV cleavable) (N, cleaved yes); made in house; host or cells: E. coli BL21(DE3)
T1 sequence (P18206 1-1066 isoform P18206-2): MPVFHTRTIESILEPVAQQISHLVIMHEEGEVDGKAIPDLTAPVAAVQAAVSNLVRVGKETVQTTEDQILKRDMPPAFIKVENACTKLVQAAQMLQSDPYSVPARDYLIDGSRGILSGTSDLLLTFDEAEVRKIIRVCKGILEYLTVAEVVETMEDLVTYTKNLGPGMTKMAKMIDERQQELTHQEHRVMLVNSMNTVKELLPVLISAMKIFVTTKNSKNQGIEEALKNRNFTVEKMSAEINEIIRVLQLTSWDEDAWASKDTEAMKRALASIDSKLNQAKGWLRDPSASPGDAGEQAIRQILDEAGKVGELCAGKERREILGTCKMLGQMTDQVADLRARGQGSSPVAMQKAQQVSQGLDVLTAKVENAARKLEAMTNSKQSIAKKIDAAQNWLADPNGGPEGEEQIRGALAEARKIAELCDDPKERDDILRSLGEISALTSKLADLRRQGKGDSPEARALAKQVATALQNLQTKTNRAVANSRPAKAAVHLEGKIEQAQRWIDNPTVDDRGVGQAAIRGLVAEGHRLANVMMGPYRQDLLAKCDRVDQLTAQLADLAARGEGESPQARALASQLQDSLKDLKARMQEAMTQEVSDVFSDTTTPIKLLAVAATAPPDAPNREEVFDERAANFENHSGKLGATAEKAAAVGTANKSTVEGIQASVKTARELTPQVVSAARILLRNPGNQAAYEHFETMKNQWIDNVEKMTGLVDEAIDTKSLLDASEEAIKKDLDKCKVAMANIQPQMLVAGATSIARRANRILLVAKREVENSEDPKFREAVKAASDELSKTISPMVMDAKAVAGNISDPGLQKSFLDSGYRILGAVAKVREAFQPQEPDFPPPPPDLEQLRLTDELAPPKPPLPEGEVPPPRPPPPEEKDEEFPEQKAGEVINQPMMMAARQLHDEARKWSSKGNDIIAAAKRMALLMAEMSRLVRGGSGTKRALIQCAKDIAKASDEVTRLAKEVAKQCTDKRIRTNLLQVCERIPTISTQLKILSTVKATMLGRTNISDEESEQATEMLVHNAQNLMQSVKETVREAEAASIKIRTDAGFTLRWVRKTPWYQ
Description: (§1) Expression plasmids for FAT (hFAK904-1052 WT and mutants H14, H23 and H14-23), Vin-FL (hVinculin1-1066) and Vin-T (hVinculin891-1066) were ordered from GenScript in the pET28(+) vector, adding a TEV cleavable N-terminal 6xHis tag to the expressed proteins. Mutant FAT-H14 contains the mutations I936A, H1025A, K1032A; FAT-H23 contains the mutations K955A, R962A, I998A and FAT-14-23 contains the combined mutations I936A, K955A, R962A, I998A, H1025A, K1032A. All plasmids were introduced into E.coli strain BL21(DE3) for expression. Cells were grown in LB media, induced with 1 mM IPTG at an OD (600 nm) of 0.6 and grown over night at 20 °C. […]
(§2) Binding curves were determined in a total of 20 µl in black 384 well plates, by titrating protein concentrations (typically up to 50 µM) at a fixed concentration of 25 nM FITC labelled LD peptides (Apeptide Co. Ltd) in 20 mM Tris pH7.5, 150 mM NaCl, 1mM TCEP. Anisotropy measurements were preformed at 22 °C on a Spark® Multimode microplate reader (Tecan) with polarizers, at an excitation wavelength of 485 nm and an emission wavelength of 535 nm (20 nm bandwidth). KD values were extracted by fitting a one-site binding model using the GraphPad Prism software, using the equation: Y = Bmax*X/(KD + X), where Y is the measured anisotropy, X the protein concentration and Bmax the maximal anisotropy value at binding saturation.

[2] = target: T2, vinculin tail domain (Vin-T, hVinculin891-1066) (Homo sapiens, UniProt P18206); assay: Fluorescence anisotropy binding to vinculin tail domain; conditions: 25 nM FITC labelled peptide, pH7.5, 22 °C, one-site binding model, 4 measurements, read-out: Apparent KD for vinculin tail domain (Vin-T)
T2 construct: Vin-FL (hVinculin1-1066) and Vin-T (hVinculin891-1066) were ordered from GenScript; 6xHis (TEV cleavable) (N, cleaved yes); made in house; host or cells: E. coli BL21(DE3)
T2 sequence (P18206 891-1066 isoform P18206-2): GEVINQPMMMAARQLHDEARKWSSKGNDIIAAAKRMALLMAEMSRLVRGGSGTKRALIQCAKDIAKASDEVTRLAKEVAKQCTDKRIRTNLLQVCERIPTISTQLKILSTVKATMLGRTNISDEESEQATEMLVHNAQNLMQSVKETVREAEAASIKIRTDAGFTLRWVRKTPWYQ
Description: as §1, §2

[3] = target: T3, FAT domain of FAK (hFAK904-1052 WT) (Homo sapiens, UniProt Q05397); assay: Fluorescence anisotropy binding of FITC LD peptides to FAT-WT
T3 construct: Expression plasmids for FAT (hFAK904-1052 WT and mutants H14, H23 and H14-23); 6xHis (TEV cleavable) (N, cleaved yes); made in house; host or cells: E. coli BL21(DE3)
T3 sequence (Q05397 904-1052): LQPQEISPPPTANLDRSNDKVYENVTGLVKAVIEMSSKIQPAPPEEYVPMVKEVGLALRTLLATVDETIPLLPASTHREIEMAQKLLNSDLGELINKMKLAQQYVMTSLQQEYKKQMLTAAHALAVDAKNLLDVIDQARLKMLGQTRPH
Description: Expression plasmids for FAT (hFAK904-1052 WT and mutants H14, H23 and H14-23), Vin-FL (hVinculin1-1066) and Vin-T (hVinculin891-1066) were ordered from GenScript in the pET28(+) vector, adding a TEV cleavable N-terminal 6xHis tag to the expressed proteins. Mutant FAT-H14 contains the mutations I936A, H1025A, K1032A; FAT-H23 contains the mutations K955A, R962A, I998A and FAT-14-23 contains the combined mutations I936A, K955A, R962A, I998A, H1025A, K1032A. All plasmids were introduced into E.coli strain BL21(DE3) for expression. Cells were grown in LB media, induced with 1 mM IPTG at an OD (600 nm) of 0.6 and grown over night at 20 °C. Cells were pelleted at 6000 rpm and resuspended in 20 mM Tris pH8, 200 mM NaCl, 5% Glycerol, 10 mM imidazole, 2mM TCEP, 1mM PMSF supplemented with cOmplete protein inhibitor cocktail (Roche). Cells were lysed by sonication and insoluble components removed by centrifugation at 40 K for 1 h at 4 °C. Soluble lysates were cleared through 0.45 μm filters and loaded onto His-Trap affinity columns (Cytiva), washed with step gradients up to 30 mM imidazole and eluted with a gradient up to 500 mM imidazole. Peak-fractions were digested over night with TEV protease (molar ratio ~ 1: 20) at 4 °C. Proteins were diluted to 50 mM NaCl and loaded onto a Source 15Q column, washed with 20 mM Tris pH8, 50 mM NaCl, 5% Glycerol, 1mM TCEP and eluted with a gradient up to 1 M NaCl. Peak fractions were mixed with 1 ml of Ni-NTA beads to remove TEV and uncleaved protein, adding 10 mM imidazole to prevent non-specific binding. The flow-through was concentrated, loaded onto a Superdex200 16/60 column and eluted in 20 mM Tris pH8, 200 mM NaCl, 5% Glycerol, 2mM TCEP. Peak fractions were concentrated, aliquots flash frozen in LN2 and stored at -80 °C.
as §2

[4] = target: paxillin LD2 peptide; assay: fluorescence polarisation; fluorescence anisotropy; protein titrated (typically up to 50 µM) at 25 nM FITC labelled LD peptide; 20 mM Tris pH7.5, 150 mM NaCl, 1mM TCEP; 22 °C; one-site binding model; apparent KD
[5] = target: paxillin LD1 peptide; assay: as above
[6] = target: vinculin tail domain (hVinculin891-1066) (human) (UniProt P18206); assay: AUC; sedimentation velocity; Vin-T at 100 µM; 20 °C, 48,000 rpm; monomer to dimer
[7] = target: T4, FAT-Y925F phosphodeficient mutant (human, UniProt Q05397 904-1052, Y925F); assay: FP
T4 sequence: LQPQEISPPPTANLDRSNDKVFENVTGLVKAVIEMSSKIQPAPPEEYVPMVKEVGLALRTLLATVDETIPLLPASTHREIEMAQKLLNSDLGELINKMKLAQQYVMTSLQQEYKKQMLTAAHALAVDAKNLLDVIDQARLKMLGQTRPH

[8] = target: T5, FAT-Y925E phospho-mimetic mutant (human, UniProt Q05397 904-1052, Y925E); assay: FP
T5 sequence: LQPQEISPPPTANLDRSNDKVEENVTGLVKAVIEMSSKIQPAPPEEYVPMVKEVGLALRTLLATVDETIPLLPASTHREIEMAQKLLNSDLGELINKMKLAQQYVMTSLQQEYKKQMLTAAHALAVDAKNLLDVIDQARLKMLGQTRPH

[9] = target: T6, FAT-H14 (hFAK904-1052 with I936A, H1025A, K1032A) (human, UniProt Q05397 904-1052, I936A | H1025A | K1032A); assay: FP
T6 sequence: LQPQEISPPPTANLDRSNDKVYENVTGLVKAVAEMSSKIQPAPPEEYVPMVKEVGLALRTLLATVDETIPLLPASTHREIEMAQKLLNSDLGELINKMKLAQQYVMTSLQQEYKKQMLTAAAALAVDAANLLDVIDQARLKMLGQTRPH

[10] = target: T7, FAT domain of Focal Adhesion Kinase, wild type (hFAK904-1052) (human, UniProt Q05397 904-1052); assay: FP
T7 chain: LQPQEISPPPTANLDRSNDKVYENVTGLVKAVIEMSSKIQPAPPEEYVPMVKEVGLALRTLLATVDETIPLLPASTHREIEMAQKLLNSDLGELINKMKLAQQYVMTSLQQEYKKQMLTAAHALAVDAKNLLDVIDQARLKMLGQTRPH

[11] = target: B2; assay: fluorescence polarisation; fluorescence anisotropy; protein titrated (typically up to 50 µM) at 25 nM FITC labelled LD peptide; 20 mM Tris pH7.5, 150 mM NaCl, 1mM TCEP; 22 °C; one-site binding model; apparent KD; conditions: both partners purified
[12] = target: T8, FAT-H23 (hFAK904-1052 with K955A, R962A, I998A) (human, UniProt Q05397 904-1052, K955A | R962A | I998A); assay: FP
T8 sequence: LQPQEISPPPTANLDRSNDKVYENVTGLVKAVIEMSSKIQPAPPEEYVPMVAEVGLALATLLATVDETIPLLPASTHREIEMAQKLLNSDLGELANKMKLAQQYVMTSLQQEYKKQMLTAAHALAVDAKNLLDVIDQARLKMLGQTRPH

[13] = target: T9, paxillin LD2/4 peptide (LD2 and LD4 motifs separated by a designed linker) (FITC label (fluorescence anisotropy)); assay: AUC; sedimentation velocity; FAT and Vin-T at 30 µM with 10 µM LD2/4 peptide; 20 mM Tris pH 7.5, 200 mM NaCl, 5% Glycerol, 1 mM TCEP; 20 °C, 58,000 rpm; absorbance at 280 nm; conditions: both partners purified
T9 chain: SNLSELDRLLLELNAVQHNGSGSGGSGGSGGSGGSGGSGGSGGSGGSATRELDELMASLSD

`CC(C)C[C@H](NC(=O)[C@H](CCC(=O)O)NC(=O)[C@H](CC(C)C)NC(=O)[C@H](CC(C)C)NC(=O)[C@H](CC(C)C)NC(=O)[C@H](CCCNC(=N)N)NC(=O)[C@H](CC(=O)O)NC(=O)[C@H](CC(C)C)NC(=O)[C@H](CCC(=O)O)NC(=O)[C@H](CO)NC(=O)[C@H](CC(C)C)NC(=O)[C@H](CC(N)=O)NC(=O)[C@@H](N)CO)C(=O)N[C@@H](CC(N)=O)C(=O)N[C@@H](C)C(=O)N[C@H](C(=O)N[C@@H](CCC(N)=O)C(=O)N[C@@H](Cc1c[nH]cn1)C(=O)N[C@@H](CC(N)=O)C(=O)O)C(C)C` [LD2] showed a Kd [1] of 1300 ± 300 nM and a Kd [2] of 1700 ± 300 nM.

Molecule MDDLDALLADLES [LD1] has a Kd [2] of 3100 ± 300 nM.

With SATRELDELMASLSD [LD4] the Kd ([3]; 25 nM FITC labelled peptide, 20 mM Tris pH7.5, 150 mM NaCl, 1mM TCEP, 22 °C, one-site binding model, 4 measurements, read-out: Apparent KD for FAT-WT) was 2100 ± 400 nM.

“SQLDSMLGSLQSD [LD5, synthetic peptide corresponding to the paxillin LD5 motif, FITC labelled N-terminally for anisotropy]” was tested, and the “binding to FAT-WT, in words” value [3] was “no significant affinity”.

With “SVESLLDELES [LD3, synthetic peptide corresponding to the paxillin LD3 motif, FITC labelled N-terminally for anisotropy]” the “binding to FAT-WT, in words” value [3] was “no significant affinity”.

“full-length vinculin (hVinculin1-1066) (from UniProt P18206-2 1-1066) (natural protein)” gave a Kd [4] of 1300 nM.

“vinculin tail domain (hVinculin891-1066) (from UniProt P18206-2 891-1066) (domain or fragment)” gave a Kd [5] of 3100 nM, a Kd [4] of 1700 nM and a percent of Vin-T in the ~ 2.5 S form at 100 µM [6] of 20%. It also gave a stoichiometry N [6] of 2.

MDDLDALLADLES (also: FITC label, position not given here) [paxillin LD1 peptide] was tested, and the Kd [7] was 19300 nM, the Kd [8] was 24700 nM and the Kd [9] was 31400 nM. The Kd [10] was 18300 nM.

With ATRELDELMASLS (also: FITC label, position not given here) [paxillin LD4 peptide] the Kd [11] was about 2000 nM and the Kd [9] was 3600 nM.

B1: paxillin LD2/4 peptide (LD2 and LD4 motifs separated by a designed linker) (peptide)
chain: SNLSELDRLLLELNAVQHNGSGSGGSGGSGGSGGSGGSGGSGGSGGSATRELDELMASLSD
modifications: also: FITC label, position not given here
With B1 the Kd [11] was 130 ± 10 nM, the Kd [7] was 1400 nM and the Kd [8] was 1500 nM. The Kd [9] was 5800 nM and the Kd [12] was 1800 nM.

With B2 the “stoichiometry N” value [13] was 1 FAT per LD2/4 (2:2), the fold lower affinity than for LD2 and LD4 [5] was 10 fold and the Kd [4] was 2000 nM.

B3: FAT-H14 (hFAK904-1052 with I936A, H1025A, K1032A) (domain or fragment)
chain: LQPQEISPPPTANLDRSNDKVYENVTGLVKAVAEMSSKIQPAPPEEYVPMVKEVGLALRTLLATVDETIPLLPASTHREIEMAQKLLNSDLGELINKMKLAQQYVMTSLQQEYKKQMLTAAAALAVDAANLLDVIDQARLKMLGQTRPH
B3 showed a fold reduction of affinity against FAT-WT [4] of 7 fold.

For SNLSELDRLLLELNAVQHN (also: FITC label, position not given here) [paxillin LD2 peptide], the Kd [7] was 6000 nM, the Kd [8] was 6000 nM and the Kd [9] was 13300 nM. The Kd [12] was 3900 nM and the Kd [10] was 1800 nM.
